{
  "source": "patent US7045552B2",
  "about": "“Pharmaceutical composition for improved administration of HIV gp41-derived peptides, and its use in therapy” (Trimeris, Inc., priority 2002, dated 2006)",
  "key": {"[1]": {"system": "HIV", "details": "cited from earlier work"}, "[2]": {"target": "HIV-1 gp41 (HIV-1)"}, "[3]": {"target": "HIV-1 gp41 (HIV-1)", "remark": "listed apart in the source"}},
  "data": [
    {"substance": "NNLLRAIEAQQHLLQLTVWGIKQLQARILAVERYLKDQ [DP107]", "values": [
      {"measurement": "50% effective concentration (EC50), blocked infection of T cells", "setting": "[1]", "value": 1000, "unit": "ng/mL"}
    ]},
    {"substance": "T20 (SEQ ID NO:4) (peptide)", "values": [
      {"measurement": "IC50, antiviral potency by the methods of Example 2; PEG 1500 formulation", "setting": "[2]", "value": 6.6, "unit": "ng/mL"}
    ]},
    {"substance": "T1249 (SEQ ID NO:5) (peptide)", "values": [
      {"measurement": "IC50 (ng/ml), Magi-CCR5 infectivity assay; mannitol formulation", "setting": "[3]", "value": 3.6, "unit": "ng/mL"}
    ]}
  ]
}
